Experimental data reported in patent US20100196361A1, “Method of inhibition of vascular development using an antibody” (DYAX CORP., priority 2003, published 2010).
Positions count from the first letter of the chain named. Where two headings read alike, the source gives them in different places.

How the values were obtained:
[1] = test system: bFGF-induced angiogenesis; assay: […] plug assay in vivo; set-up: species or system mouse
Protocol: The germlined variant of the E3 IgG antibody was evaluated in an in vivo assay for angiogenesis induced by bFGF in […]™ plugs. Growth factor reduced […]™ (BD Biosciences, catalog #354230) was supplemented with 80 ng/ml of bFGF (R&D Systems, catalog #234-FSE). The A2-SV or an IgG4 E3 antibody (10 μg/ml) or PBS was injected subcutaneously into the abdominal area of NMRI nu/nu mice (150 μl of Matrigel/plug).
In the first assay, two mice were injected with […]™ supplemented with bFGF and soluble VEGFR-1 (10 μg/ml) as a positive control for an angiogenic inhibitor. At day 7 post-implantation mice were anesthetized and perfused through heart with 4% paraformaldehyde (PFA) in phosphate buffered saline (PBS). […]™ plugs and a piece of liver were removed and embedded in paraffin. Sections were cut and stained with hematoxylin and eosin (H&E).
In a second assay, mice were treated as described above, and then anesthetized eight days post-implantation and injected with fluorescein-conjugated tomato (lycopersicon esculentum) lectin (100 μg in 200 μl of PBS; Vector, catalog #FL-1171) into the tail vein. After five min circulation the animals were perfused through the heart with 10 ml of PBS followed by 10 ml of 4% PFA in PBS. […]™ plugs and pieces of kidney and liver were removed and frozen in OCT (Tissue-Tek). Nuclei were visualized on sections by using […]® mounting medium containing DAPI (Vector) and analyzed under fluorescence microscopy.
To assess further the potential anti-angiogenic activity of the E3 antibody, a third assay examining the effect of DX-2210 (E3 antibody with germlined light chain) on bFGF-induced endothelial cell tube formation in […]™ plugs was performed. […] In order to quantitate the amount of blood vessels in the […]™ plugs, sections were cut and either stained for endothelial cell content using an anti-CD-31 antibody or analyzed under fluorescence microscopy to assess the amount of functional blood vessels (tomato lectin staining) (data not shown). In addition, the amount of blood vessels per unit area was quantitated.

platelets = assay: Platelet agglutination and aggregation; assay type: cell-based
From the text: It has been reported that Tie1 is expressed on platelets ([…] et al. (2000) J. Vasc. Res. 37(6):437). The possibility of platelet immunoreactivity with the E3 anti-Tie1 antibody was investigated by FACs analysis and immunoprecipitation studies. […] In addition, the effect of DX-2200 and DX-2210 on platelet agglutination and aggregation was investigated. Ristocetin, a cofactor that induces platelet agglutination by mediating the binding of von Willebrand factor (vWF) to platelet membrane glycoprotein GPIb (CD42), was used as a positive control for platelet agglutination.

mouse Tie1 Fc = molecular target: T1, mouse Tie1 Fc (Mus musculus, UniProt Q06806); assay: BIAcore, Fab over biotinylated mouse Tie1-Fc on streptavidin chip; assay type: binding; conditions: Fab analyte; for kon: 740 RU
T1 construct: both dimeric (Tie1-Fc fusion protein) and monomeric (Tie1-HIS) versions of the extracellular domain of the Tie1 were used
T1 sequence (Q06806 23-755 limits assumed): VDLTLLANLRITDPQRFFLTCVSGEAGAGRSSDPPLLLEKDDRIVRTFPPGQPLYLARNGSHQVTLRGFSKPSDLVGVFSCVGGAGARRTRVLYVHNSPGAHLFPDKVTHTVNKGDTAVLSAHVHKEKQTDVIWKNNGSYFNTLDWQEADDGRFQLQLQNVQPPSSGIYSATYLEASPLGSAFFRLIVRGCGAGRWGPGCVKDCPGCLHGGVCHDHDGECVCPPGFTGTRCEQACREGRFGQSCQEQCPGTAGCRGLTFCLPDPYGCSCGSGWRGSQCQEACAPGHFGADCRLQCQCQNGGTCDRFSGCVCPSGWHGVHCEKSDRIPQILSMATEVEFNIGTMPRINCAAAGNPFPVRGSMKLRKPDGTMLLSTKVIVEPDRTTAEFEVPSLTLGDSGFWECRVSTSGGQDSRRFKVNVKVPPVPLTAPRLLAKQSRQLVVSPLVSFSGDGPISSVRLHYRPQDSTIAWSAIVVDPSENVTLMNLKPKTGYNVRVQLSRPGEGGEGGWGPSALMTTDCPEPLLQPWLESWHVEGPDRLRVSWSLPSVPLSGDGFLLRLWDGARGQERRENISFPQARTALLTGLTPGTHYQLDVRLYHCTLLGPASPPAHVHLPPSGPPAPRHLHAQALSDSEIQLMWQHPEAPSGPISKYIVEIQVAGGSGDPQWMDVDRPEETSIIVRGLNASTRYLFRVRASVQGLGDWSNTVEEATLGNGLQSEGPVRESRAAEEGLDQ
Protocol: Mouse Tie 1-Fc antigen (0.5 mg/ml stock) was biotinylated using established procedures and after dilution 1/100 fold in HBS this was then used for capturing to a streptavidin chip. This was coated to a resonance value of 740RU. All analysis was performed in HBS buffer. The parental Fab E3 0.587 mg/ml (11740 nM) was diluted 1/587 in HBS+BSA to obtain a stock of 20 nM and the germlined Fab E3 0.025 mg/ml (500 nM) was diluted 1/25 in HBS+BSA to obtain a stock of 20 nM. Serial dilutions were made of each Fab preparation to obtain 10 nM, 5 nM, 2.5 nM, and 1.25 nM. For the association phase samples were injected at 30 μl/min for 4 minutes using kinject program. This was followed by a 10 minutes dissociation phase, any remaining sample was stripped from the Tie1 Fc surface at a flow of 50 μl/min with a single injection of 50 mM NaOH+1 M NaCl for 18 seconds. All samples were run and analyzed in duplicate.
Sensorgrams were analyzed using the simultaneous ka/kd fitting program with 1:1 model in the BIAEVALUATION™ software 3.1.

B1: E3: human anti-Tie1 antibody from phage Fab library, reformatted as IgG; HC variable SEQ ID NO:114, LC variable SEQ ID NO:116 (antibody, V domains shown)
VH: EVQLLESGGGLVQPGGSLRLSCAASGFTFSMYGMVWVRQAPGKGLEWVSVISPSGGNTGYADSVKGRFTISRDNSKNTLYLQVNSLRAEDTAVYYCARAPRGYSYGYYYWGQGTLVTVSSASTKGPSVFPLAPSSKSTSGG
VL: DIQMTQSPLSLSASVGDRVTITCRASQGIGHYLAWYQQKPGKVPKLLIYTASTLQSGVPSRFSGSGSGTDFTLTINSLQPEDVATYYCQQFNSYPHTFGQGTRLDIK
modifications: IgG constant regions; Synthetically generated peptide
[1]; bFGF, antibody in plug, eight days post-implantation
  fluorescein-lectin staining of MATRIGEL plugs: no staining could be detected
platelets; ristocetin and anti-CD9 as positive controls
  induction of platelet agglutination or aggregation: Neither the DX-2200 nor its light chain germlined variant DX-2210 induced platelet agglutination or aggregation

B2: parental E3 Fab: soluble Fab fragment of the parental E3 anti-Tie1 antibody (antibody, V domains shown)
VH: B1 VH
VL: B1 VL
Mouse Tie1 Fc
  koff: 0.00095 s⁻¹
  kon: 246000 M⁻¹ s⁻¹

B3: germlined E3 Fab: soluble Fab of E3 with LC framework regions germlined to DPK4; LC variable SEQ ID NO:159 (antibody, V domains shown)
VH: B1 VH
VL: B1 VL with L9S, N76S, D105E
Mouse Tie1 Fc
  koff: 0.00104 s⁻¹
  kon: 340000 M⁻¹ s⁻¹

B4: DX-2210: E3 antibody in which the light chain has been germlined (antibody, V domains shown)
VH: B1 VH
VL: B1 VL with L9S, N76S, D105E
[1]; MATRIGEL with HUVECs and bFGF, Balb/c nu/nu mice, day 8
  inhibition of bFGF-induced angiogenesis (blood vessels per unit area): 70%
[1]; bFGF 80 ng/ml, antibody 10 μg/ml in plug, NMRI nu/nu mice, day 7
  H&E staining of MATRIGEL plugs: neither modification of the matrix nor organization of the cells observed
platelets
  induction of platelet agglutination or aggregation: Neither the DX-2200 nor its light chain germlined variant DX-2210 induced platelet agglutination or aggregation
